Measurements published in the supplement of paper PMC10567573.

B1: PTPRD (parent)
chain: ITWFKDFLPVDTSNNNGRIKQLRS

Variants of: B1
Assay: protein stability index of a GFP-peptide fusion (GPS, HEK-293T) (PSI 1-6); higher = more stable
Conditions: c terminus: a fixed tail appended
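Also: lentivirally expressed fusions sorted by FACS into six bins by GFP to DsRed ratio, PSI derived from sequencing read proportions per bin multiplied by bin number.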

Protein stability index: each site, then its substitutions
R18: I 1.74, F 2.04, S 1.95, D 1.83, A 1.8, C 2.83, L 1.45
T2: M 1.96, G 2.78, I 2.18, N 2, K 2.03, S 2.12, C 2.09, E 2.33, P 3, A 2.34, F 2.41, Y 1.68
F4: H 2.27, Q 2.21, K 2.37, P 2.74, C 1.94, L 1.87, W 2.02
S24: V 1.52, Y 1.94, R 2.18, W 2.63, G 2.34
D6: V 2.3, T 1.6, Y 2.85, E 2.36, G 2.27, M 2.14, A 1.78, R 2.37
N16: T 2.38, E 2.02, F 1.82, L 1.73
L8: D 2.31, K 2.28, W 1.76, E 1.85
L22: D 2, A 1.69, R 1.83
S13: K 1.77, R 1.88, L 1.88, M 2.17
V10: A 2.03, S 2.15, F 2.65, R 1.82, W 2.62, P 2.26
T12: W 1.84, A 1.98, L 1.94, R 1.9, C 1.55
D11: L 1.62, R 1.35, N 2.01, P 2.06, F 1.9, M 2.16, K 1.71, E 1.99, S 2.06
Q21: F 1.75, A 1.57, L 1.73, G 2.28, W 2.24, T 1.69, C 1.52, H 1.56
I1: H 3.47, K 2.99, L 2.33, C 1.9
N15: L 2.37, C 2.26, A 1.61, Y 1.87, R 1.71, W 2.17, V 1.74, P 1.82
K5: L 2.08, V 1.51, T 2.1, H 2.06, F 1.97, M 2.43, N 2.12
I19: K 2.33, T 2.23, A 1.72, W 1.46, D 2.08
K20: C 1.43, Q 1.94, G 1.58, E 1.74, Y 2.19, N 2.08, A 1.66
W3: Y 2.95, D 3.43, E 4.07, M 2.95
P9: Y 1.66, L 2.84, F 1.93, I 2.02, S 2.13, K 1.96, R 1.43, V 2.04, W 1.75, E 2
N14: C 1.52, L 1.96, E 2.05, I 1.85, R 1.98, G 1.92, T 1.76, D 1.66, Y 1.51, A 2.03, W 2.16
R23: S 1.83, V 1.91, H 1.74, F 1.88, Q 2.09, T 2.04, L 1.81, Y 1.63
F7: G 2.25, N 2.47, C 2.31, V 1.85, A 2.45, R 1.8, L 2.41, H 2.76, Y 1.99, M 2.46, S 2.36
G17: V 1.31, Y 1.78, Q 2.15, K 2.86, E 2.62, W 2.63, R 1.5, I 1.53, D 2.09, H 1.37
